Data as given in patent US9777056B2, “Immunotherapy for clearing pathological tau conformers” (New York University, priority 2006, dated 2017).

Experiment: Thioflavin T (ThT) in vitro fibrillogenesis assay
Assay type: physicochemical
Conditions: 0.1 M Tris pH 7.4, incubated for different times
Method: ThT binds specifically to β-sheet structure and this binding produces a shift in its emission spectrum and a fluorescent enhancement proportional to the amount of amyloid formed. Following the incubation period, 50 mM glycine, pH 9.2, and 2 μM ThT was added to a final volume of 200 μl containing 3 μg of the immunogen or the P301L tau peptide (with or without equimolar concentration of antibodies purified from the immunized mice). Fluorescence was measured at excitation 435 nm and emission 485 nm on a SpectraMax M2 multi-detection plate reader (Molecular Devices, Sunnyvale, Calif.).

Aβ1-42: amyloid-β control peptide used for comparison in ThT and MTT assays
fibril formation (fibrillogenicity), Thioflavin T fluorescence: very fibrillogenic
